B1: POLR3C (protein, UniProt Q9BUI4 1-534, looked up)
DNA-directed RNA polymerase …: MTQAEIKLCSLLLQEHFGEIVEKIGVHLIRTGSQPLRVIAHDTGTSLDQVKKALCVLVQHNLVSYQVHKRGVVEYEAQCSRVLRMLRYPRYIYTTKTLYSDTGELIVEELLLNGKLTMSAVVKKVADRLTETMEDGKTMDYAEVSNTFVRLADTHFVQRCPSVPTTENSDPGPPPPAPTLVINEKDMYLVPKLSLIGKGKRRRSSDEDAAGEPKAKRPKYTTDNKEPIPDDGIYWQANLDRFHQHFRDQAIVSAVANRMDQTSSEIVRTMLRMSEITTSSSAPFTQPLSSNEIFRSLPVGYNISKQVLDQYLTLLADDPLEFVGKSGDSGGGMYVINLHKALASLATATLESVVQERFGSRCARIFRLVLQKKHIEQKQVEDFAMIPAKEAKDMLYKMLSENFMSLQEIPKTPDHAPSRTFYLYTVNILSAARMLLHRCYKSIANLIERRQFETKENKRLLEKSQRVEAIIASMQATGAEEAQLQEIEEMITAPERQQLETLKRNVNKLDASEIQVDETIFLLESYIECTMKRQ
B2: POU3F1 (protein, UniProt Q03052 1-451, looked up)
POU domain, class 3, …: MATTAQYLPRGPGGGAGGTGPLMHPDAAAAAAAAAAAERLHAGAAYREVQKLMHHEWLGAGAGHPVGLAHPQWLPTGGGGGGDWAGGPHLEHGKAGGGGTGRADDGGGGGGFHARLVHQGAAHAGAAWAQGSTAHHLGPAMSPSPGASGGHQPQPLGLYAQAAYPGGGGGGLAGMLAAGGGGAGPGLHHALHEDGHEAQLEPSPPPHLGAHGHAHGHAHAGGLHAAAAHLHPGAGGGGSSVGEHSDEDAPSSDDLEQFAKQFKQRRIKLGFTQADVGLALGTLYGNVFSQTTICRFEALQLSFKNMCKLKPLLNKWLEETDSSSGSPTNLDKIAAQGRKRKKRTSIEVGVKGALESHFLKCPKPSAHEITGLADSLQLEKEVVRVWFCNRRQKEKRMTPAAGAGHPPMDDVYAPGELGPGGGGASPPSAPPPPPPAALHHHHHHTLPGSVQ
B3: PIAS2 (protein, UniProt O75928 1-621, looked up)
E3 SUMO-protein ligase PIAS2: MADFEELRNMVSSFRVSELQVLLGFAGRNKSGRKHDLLMRALHLLKSGCSPAVQIKIRELYRRRYPRTLEGLSDLSTIKSSVFSLDGGSSPVEPDLAVAGIHSLPSTSVTPHSPSSPVGSVLLQDTKPTFEMQQPSPPIPPVHPDVQLKNLPFYDVLDVLIKPTSLVQSSIQRFQEKFFIFALTPQQVREICISRDFLPGGRRDYTVQVQLRLCLAETSCPQEDNYPNSLCIKVNGKLFPLPGYAPPPKNGIEQKRPGRPLNITSLVRLSSAVPNQISISWASEIGKNYSMSVYLVRQLTSAMLLQRLKMKGIRNPDHSRALIKEKLTADPDSEIATTSLRVSLMCPLGKMRLTIPCRAVTCTHLQCFDAALYLQMNEKKPTWICPVCDKKAAYESLILDGLFMEILNDCSDVDEIKFQEDGSWCPMRPKKEAMKVSSQPCTKIESSSVLSKPCSVTVASEASKKKVDVIDLTIESSSDEEEDPPAKRKCIFMSETQSSPTKGVLMYQPSSVRVPSVTSVDPAAIPPSLTDYSVPFHHTPISSMSSDLPGLDFLSLIPVDPQYCPPMFLDSLTSPLTASSTSVTTTSSHESSTHVSSSSSRSETGVITSSGSNIPDIISLD
B4: POU3F3 (protein, UniProt P20264 1-500, looked up)
POU domain, class 3, …: MATAASNPYLPGNSLLAAGSIVHSDAAGAGGGGGGGGGGGGGGAGGGGGGMQPGSAAVTSGAYRGDPSSVKMVQSDFMQGAMAASNGGHMLSHAHQWVTALPHAAAAAAAAAAAAVEASSPWSGSAVGMAGSPQQPPQPPPPPPQGPDVKGGAGRDDLHAGTALHHRGPPHLGPPPPPPHQGHPGGWGAAAAAAAAAAAAAAAAHLPSMAGGQQPPPQSLLYSQPGGFTVNGMLSAPPGPGGGGGGAGGGAQSLVHPGLVRGDTPELAEHHHHHHHHAHPHPPHPHHAQGPPHHGGGGGGAGPGLNSHDPHSDEDTPTSDDLEQFAKQFKQRRIKLGFTQADVGLALGTLYGNVFSQTTICRFEALQLSFKNMCKLKPLLNKWLEEADSSTGSPTSIDKIAAQGRKRKKRTSIEVSVKGALESHFLKCPKPSAQEITNLADSLQLEKEVVRVWFCNRRQKEKRMTPPGIQQQTPDDVYSQVGTVSADTPPPHHGLQTSVQ
B5: POU2F2 (protein, UniProt P09086 1-479, looked up)
POU domain, class 2, …: MVHSSMGAPEIRMSKPLEAEKQGLDSPSEHTDTERNGPDTNHQNPQNKTSPFSVSPTGPSTKIKAEDPSGDSAPAAPLPPQPAQPHLPQAQLMLTGSQLAGDIQQLLQLQQLVLVPGHHLQPPAQFLLPQAQQSQPGLLPTPNLFQLPQQTQGALLTSQPRAGLPTQAVTRPTLPDPHLSHPQPPKCLEPPSHPEEPSDLEELEQFARTFKQRRIKLGFTQGDVGLAMGKLYGNDFSQTTISRFEALNLSFKNMCKLKPLLEKWLNDAETMSVDSSLPSPNQLSSPSLGFDGLPGRRRKKRTSIETNVRFALEKSFLANQKPTSEEILLIAEQLHMEKEVIRVWFCNRRQKEKRINPCSAAPMLPSPGKPASYSPHMVTPQGGAGTLPLSQASSSLSTTVTTLSSAVGTLHPSRTAGGGGGGGGAAPPLNSIPSVTPPPPATTNSTNPSPQGSHSAIGLSGLNPSTGPGLWWNPAPYQP
B6: POU3F2 (protein, UniProt P20265 1-443, looked up)
POU domain, class 3, …: MATAASNHYSLLTSSASIVHAEPPGGMQQGAGGYREAQSLVQGDYGALQSNGHPLSHAHQWITALSHGGGGGGGGGGGGGGGGGGGGGDGSPWSTSPLGQPDIKPSVVVQQGGRGDELHGPGALQQQHQQQQQQQQQQQQQQQQQQQQQRPPHLVHHAANHHPGPGAWRSAAAAAHLPPSMGASNGGLLYSQPSFTVNGMLGAGGQPAGLHHHGLRDAHDEPHHADHHPHPHSHPHQQPPPPPPPQGPPGHPGAHHDPHSDEDTPTSDDLEQFAKQFKQRRIKLGFTQADVGLALGTLYGNVFSQTTICRFEALQLSFKNMCKLKPLLNKWLEEADSSSGSPTSIDKIAAQGRKRKKRTSIEVSVKGALESHFLKCPKPSAQEITSLADSLQLEKEVVRVWFCNRRQKEKRMTPPGGTLPGAEDVYGGSRDTPPHHGVQTPVQ
B7: BACH1 (protein, UniProt O14867 1-736, looked up)
Transcription regulator …: MSLSENSVFAYESSVHSTNVLLSLNDQRKKDVLCDVTIFVEGQRFRAHRSVLAACSSYFHSRIVGQADGELNITLPEEVTVKGFEPLIQFAYTAKLILSKENVDEVCKCVEFLSVHNIEESCFQFLKFKFLDSTADQQECPRKKCFSSHCQKTDLKLSLLDQRDLETDEVEEFLENKNVQTPQCKLRRYQGNAKASPPLQDSASQTYESMCLEKDAALALPSLCPKYRKFQKAFGTDRVRTGESSVKDIHASVQPNERSENECLGGVPECRDLQVMLKCDESKLAMEPEETKKDPASQCPTEKSEVTPFPHNSSIDPHGLYSLSLLHTYDQYGDLNFAGMQNTTVLTEKPLSGTDVQEKTFGESQDLPLKSDLGTREDSSVASSDRSSVEREVAEHLAKGFWSDICSTDTPCQMQLSPAVAKDGSEQISQKRSECPWLGIRISESPEPGQRTFTTLSSVNCPFISTLSTEGCSSNLEIGNDDYVSEPQQEPCPYACVISLGDDSETDTEGDSESCSAREQECEVKLPFNAQRIISLSRNDFQSLLKMHKLTPEQLDCIHDIRRRSKNRIAAQRCRKRKLDCIQNLESEIEKLQSEKESLLKERDHILSTLGETKQNLTGLCQKVCKEAALSQEQIQILAKYSAADCPLSFLISEKDKSTPDGELALPSIFSLSDRPPAVLPPCARGNSEPGYARGQESQQMSTATSEQAGPAEQCRQSGGISDFCQQMTDKCTTDE
B8: PIAS4 (protein, UniProt Q9JM05 2-507, looked up)
E3 SUMO-protein ligase PIAS4: AAELVEAKNMVMSFRVSDLQMLLGFVGRSKSGLKHELVTRALQLVQFDCSPELFKKIKELYETRYAKKSAEPGPQAPRPLDPLALHSMPRTPLSGPTVDYPVLYGKYLNGLGRLPTKTLKPEVRLVKLPFFNMLDELLKPTELVPQSAEKLQESPCIFALTPRQVEMIRNSRELQPGVKAVQVVLRICYSDTSCPQEDQYPPNIAVKVNHSYCSVPGYYPSNKPGVEPKRPCRPINLTHLMYLSSATNRITVTWGNYGKSYSVALYLVRQLTSSDLLQRLKTIGVKHPELCKALVKEKLRLDPDSEIATTGVRVSLICPLVKMRLSVPCRAETCAHLQCFDAVFYLQMNEKKPTWMCPVCDKPAAYDQLIIDGLLSKILSECEGADEIEFLAEGSWRPIRAEKEPSCSPQGPILVLGTSDANGLAPASSTPGIGSGLSGPGSAGSGAGAAGSLENGKTGADVVDLTLDSSSSSEDEDEDEDDDEDEDEGPRPKRRCPFQKGLVPAC
B9: PGR (protein, UniProt P06401 1-933, looked up)
Progesterone receptor: MTELKAKGPRAPHVAGGPPSPEVGSPLLCRPAAGPFPGSQTSDTLPEVSAIPISLDGLLFPRPCQGQDPSDEKTQDQQSLSDVEGAYSRAEATRGAGGSSSSPPEKDSGLLDSVLDTLLAPSGPGQSQPSPPACEVTSSWCLFGPELPEDPPAAPATQRVLSPLMSRSGCKVGDSSGTAAAHKVLPRGLSPARQLLLPASESPHWSGAPVKPSPQAAAVEVEEEDGSESEESAGPLLKGKPRALGGAAAGGGAAAVPPGAAAGGVALVPKEDSRFSAPRVALVEQDAPMAPGRSPLATTVMDFIHVPILPLNHALLAARTRQLLEDESYDGGAGAASAFAPPRSSPCASSTPVAVGDFPDCAYPPDAEPKDDAYPLYSDFQPPALKIKEEEEGAEASARSPRSYLVAGANPAAFPDFPLGPPPPLPPRATPSRPGEAAVTAAPASASVSSASSSGSTLECILYKAEGAPPQQGPFAPPPCKAPGASGCLLPRDGLPSTSASAAAAGAAPALYPALGLNGLPQLGYQAAVLKEGLPQVYPPYLNYLRPDSEASQSPQYSFESLPQKICLICGDEASGCHYGVLTCGSCKVFFKRAMEGQHNYLCAGRNDCIVDKIRRKNCPACRLRKCCQAGMVLGGRKFKKFNKVRVVRALDAVALPQPVGVPNESQALSQRFTFSPGQDIQLIPPLINLLMSIEPDVIYAGHDNTKPDTSSSLLTSLNQLGERQLLSVVKWSKSLPGFRNLHIDDQITLIQYSWMSLMVFGLGWRSYKHVSGQMLYFAPDLILNEQRMKESSFYSLCLTMWQIPQEFVKLQVSQEEFLCMKVLLLLNTIPLEGLRSQTQFEEMRSSYIRELIKAIGLRQKGVVSSSQRFYQLTKLLDNLHDLVKQLHLYCLNTFIQSRALSVEFPEMMSEVIAAQLPKILAGMVKPLLFHKK
B10: POU2AF1 (protein, UniProt Q16633 1-256, looked up)
POU domain class …: MLWQKPTAPEQAPAPARPYQGVRVKEPVKELLRRKRGHASSGAAPAPTAVVLPHQPLATYTTVGPSCLDMEGSVSAVTEEAALCAGWLSQPTPATLQPLAPWTPYTEYVPHEAVSCPYSADMYVQPVCPSYTVVGPSSVLTYASPPLITNVTTRSSATPAVGPPLEGPEHQAPLTYFPWPQPLSTLPTSTLQYQPPAPALPGPQFVQLPISIPEPVLQDMEDPRRAASSLTIDKLLLEEEDSDAYALNHTLSVEGF

system: HEK293FT cells transfected with TF library; test: Screening of TF condensates based on fluorescent puncta; format: cell-based; conditions: Figure 1B numerical data; TF library screen, one value per transcriptional factor
Procedure, shortened: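 HEK293FT, PEI transfection of TF library, 60 h; ±glucose 12 h; 4% PFA fix, 0.05% Triton X-100 permeabilization, 5% BSA block; anti-Flag/anti-GAL4 overnight at 4 °C, Alexa 488 secondary 1 h; high-content imaging, 50 fields/well.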

Molecule | Z score of condensed fraction
B1 | 2.0488
B2 | -0.6601
B3 | -0.03329
B4 | 1.399
B5 | -0.2237
B6 | -0.6292
B7 | -0.5247
B8 | -0.6594
B9 | 1.815
B10 | 2.502
